Measurements taken from US20240116997A1.

Target: His-tagged human IL-18BP (human) (UniProt O95998)
Assay: AlphaLISA of free IL-18BP after incubation with IL-18 dilutions

Sequence of His-tagged human IL-18BP (human) (O95998 31-194): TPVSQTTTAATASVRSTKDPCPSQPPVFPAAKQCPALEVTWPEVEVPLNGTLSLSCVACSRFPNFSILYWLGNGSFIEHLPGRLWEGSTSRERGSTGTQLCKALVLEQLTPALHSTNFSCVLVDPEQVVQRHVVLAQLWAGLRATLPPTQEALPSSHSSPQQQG
Sequence of IL-18 WT (native sequence, SEQ ID NO: 1) (Q14116 37-193): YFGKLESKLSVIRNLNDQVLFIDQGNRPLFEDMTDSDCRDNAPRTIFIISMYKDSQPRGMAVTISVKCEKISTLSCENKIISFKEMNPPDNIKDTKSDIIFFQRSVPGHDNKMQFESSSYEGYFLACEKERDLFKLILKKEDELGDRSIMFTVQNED

Substance | Kd
C142 (Y1M, E6K, V11I, C38A, K53A, T63A, C76A, C127A) (from UniProt Q14116 38-193) (ligand) | 2.25 nM
C143 (V11I, C38A, K53A, C76A, C127A) (from UniProt Q14116 37-193) (ligand) | 8.86 nM
C144 (V11I, C38A, K53A, T63A, C76A, C127A) (from UniProt Q14116 37-193) (ligand) | 0.66 nM
C145 (V11I, C38A, K53A, S55A, C76A, C127A) (from UniProt Q14116 37-193) (ligand) | 9.74 nM
C146 (SEQ ID NO: 79; V11I, C38A, M51G, K53A, C76A, C127A) (from UniProt Q14116 37-193) (ligand) | 373 nM
C147 (V11I, C38A, K53A, D54A, C76A, C127A) (from UniProt Q14116 37-193) (ligand) | 25.8 nM
C148 (F2A, V11I, C38A, K53A, C76A, C127A) (from UniProt Q14116 37-193) (ligand) | 57.2 nM
C149 (V11I, E31A, C38A, K53A, C76A, C127A) (from UniProt Q14116 37-193) (ligand) | 0.64 nM
C150 (V11I, T34A, C38A, K53A, C76A, C127A) (from UniProt Q14116 37-193) (ligand) | 1.24 nM
C151 (V11I, D35A, C38A, K53A, C76A, C127A) (from UniProt Q14116 37-193) (ligand) | 2.88 nM
C152 (V11I, S36A, C38A, K53A, C76A, C127A) (from UniProt Q14116 37-193) (ligand) | 1.12 nM
C153 (V11I, D37A, C38A, K53A, C76A, C127A) (from UniProt Q14116 37-193) (ligand) | 4.55 nM
C154 (V11I, E31A, D37A, C38A, K53A, C76A, C127A) (from UniProt Q14116 37-193) (ligand) | 2.12 nM
C155 (V11I, C38A, D40A, K53A, C76A, C127A) (from UniProt Q14116 37-193) (ligand) | 0.74 nM
C156 (V11I, C38A, N41A, K53A, C76A, C127A) (from UniProt Q14116 37-193) (ligand) | 18.5 nM
C157 (V11I, C38A, K53A, C76A, C127A, D132A) (from UniProt Q14116 37-193) (ligand) | 13.7 nM
C158 (V11I, C38A, K53A, C76A, G108A, C127A) (from UniProt Q14116 37-193) (ligand) | 1.24 nM
C159 (V11I, C38A, K53A, C76A, H109A, C127A) (from UniProt Q14116 37-193) (ligand) | 0.55 nM
C160 (V11I, C38A, K53A, C76A, D110A, C127A) (from UniProt Q14116 37-193) (ligand) | 0.71 nM
C161 (K8R, V11I, C38A, C76A, Q103E, C127A) (from UniProt Q14116 37-193) (ligand) | 0.06 nM
C162 (K8E, V11I, C38A, C76A, Q103R, C127A) (from UniProt Q14116 37-193) (ligand) | 0.85 nM
C163 (V11I, C38A, C76A, Q103K, C127A) (from UniProt Q14116 37-193) (ligand) | 0.05 nM
C164 (V11I, C38A, S55H, C76A, C127A) (from UniProt Q14116 37-193) (ligand) | 0.08 nM
C165 (V11I, C38A, S55R, C76A, C127A) (from UniProt Q14116 37-193) (ligand) | 0.15 nM
C166 (V11I, C38A, S55T, C76A, C127A) (from UniProt Q14116 37-193) (ligand) | 0.02 nM

Substance | Kd
C167 (V11I, C38A, C76A, S105I, C127A) (from UniProt Q14116 37-193) (ligand) | 0.04 nM
C168 (V11I, C38A, C76A, S105K, C127A) (from UniProt Q14116 37-193) (ligand) | 0.05 nM
C174 (K8L, E6K, V11I, C38A, K53A, T63A, C76A, C127A) (from UniProt Q14116 37-193) (ligand) | 0.14 nM
C176 (E6K, V11I, C38A, I49M, K53A, T63A, C76A, C127A) (from UniProt Q14116 37-193) (ligand) | 25.8 nM
C184 (E6R, V11I, C38A, K53A, T63A, C76A, C127A) (from UniProt Q14116 37-193) (ligand) | 5.46 nM
IL-18 WT (native sequence, SEQ ID NO: 1) (from UniProt Q14116 37-193) (ligand) | 0.67 nM
IL-18 polypeptide SEQ ID NO: 35 (Y01G, F02A, E06K, M51G, K53A, D54A, S55A, T63A) (from UniProt Q14116 37-193) (ligand) | 969 nM
IL-18 polypeptide SEQ ID NO: 36 (K53A) (from UniProt Q14116 37-193) (ligand) | 514 nM
IL-18 polypeptide SEQ ID NO: 37 (S55A) (from UniProt Q14116 37-193) (ligand) | 10.7 nM
IL-18 polypeptide SEQ ID NO: 38 (E06K) (from UniProt Q14116 37-193) (ligand) | 0.13 nM
IL-18 polypeptide SEQ ID NO: 39 (E06K, K53A) (from UniProt Q14116 37-193) (ligand) | 130 nM
IL-18 polypeptide SEQ ID NO: 40 (E06K, S55A) (from UniProt Q14116 37-193) (ligand) | 12.3 nM
IL-18 polypeptide SEQ ID NO: 41 (K53A, S55A) (from UniProt Q14116 37-193) (ligand) | 500 nM
IL-18 polypeptide SEQ ID NO: 42 (E06K, K53A, S55A, T63A) (from UniProt Q14116 37-193) (ligand) | 822 nM
IL-18 polypeptide SEQ ID NO: 47 (C38S, C68S, C76S, C127S) (from UniProt Q14116 37-193) (ligand) | 0.03 nM
IL-18 polypeptide SEQ ID NO: 48 (C38S, C68S, C76S, C127S, K70C) (from UniProt Q14116 37-193) (ligand) | 0.21 nM
IL-18 polypeptide SEQ ID NO: 50 (E06K, K53A, T63A) (from UniProt Q14116 37-193) (ligand) | 340 nM
IL-18 polypeptide SEQ ID NO: 51 (T63A) (from UniProt Q14116 37-193) (ligand) | 2.59 nM
IL-18 polypeptide SEQ ID NO: 52 (E06K, T63A) (from UniProt Q14116 37-193) (ligand) | 0.83 nM
IL-18 polypeptide SEQ ID NO: 53 (K53A, T63A) (from UniProt Q14116 37-193) (ligand) | 198 nM
IL-18 polypeptide SEQ ID NO: 54 (E06K, K53A, C38S, C68S, C76S, C127S, K70C) (from UniProt Q14116 37-193) (ligand) | 446 nM
IL-18 polypeptide SEQ ID NO: 55 (K53A, T63A, C38S, C68S, C76S, C127S, K70C) (from UniProt Q14116 37-193) (ligand) | 913 nM
IL-18 polypeptide SEQ ID NO: 56 (E6K, K53A, C38S, C76S, C127S) (from UniProt Q14116 37-193) (ligand) | 436 nM
IL-18 polypeptide SEQ ID NO: 57 (E6K, C38S, K53A) (from UniProt Q14116 37-193) (ligand) | 50.2 nM
